B1: ZNF263 (parent)
chain: FGGNPRFLSLHRAHLGEEAHKCLE

Variants of: B1
Assay: protein stability index of a GFP-peptide fusion (GPS, HEK-293T) (PSI 1-6); higher = more stable
Conditions: c terminus: a fixed tail appended
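Further: lentivirally expressed fusions sorted by FACS into six bins by GFP to DsRed ratio, PSI derived from sequencing read proportions per bin multiplied by bin number.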

| Variant | protein stability index |
| --- | --- |
| FGGNPRFLSLHRAHLGEEAHKCLM [E24M] | 2.31 |
| FGGNPRFLSLHRAHLGEEAHKCLR [E24R] | 1.75 |
| FGGNPRFLSLHRAHLGEEAHKCLA [E24A] | 1.77 |
| FGGNPRFLSLHRAHLGEEAHKCLK [E24K] | 1.76 |
| FGGNPRFLSLHRAHLGEEAHKCLL [E24L] | 2.52 |
| FGGNPRFLSLHRAHLGEEAHKCLT [E24T] | 1.56 |
| FGGNPRFLSLHRAHLGEEAHKCLD [E24D] | 1.71 |
| FGGNPRFLSLHRAHLGEEAHKCLW [E24W] | 3.02 |
| FGGNPRFLSLHRAHLGEEAHKCLF [E24F] | 1.7 |
| FGGNPRFLSLHRAHLGEEAHKCLV [E24V] | 2.88 |
| FGGNPRFLSLHRAHLGEEAHKCLQ [E24Q] | 2.37 |
| FGGNPRFLSLHRAHLGEEAHKCLY [E24Y] | 1.51 |
| FGGNPRFLSLHRAHLGEEAHKCLS [E24S] | 2.75 |
| FGGNPRFLSLHRAHLGEEAHKCLH [E24H] | 1.69 |
| FGGNPRFLSLHRAHLGEEAHKCLN [E24N] | 1.48 |
| FGGNPRFLSLHRAHLGEEAHKCLI [E24I] | 1.51 |
| FGGNPRFLSLHRAHLGEEAHRCLE [K21R] | 1.05 |
| FGGNPRFLSLHRAHLGEEAHMCLE [K21M] | 2.76 |
| FGGNPRFLSLHRAHLGEEAHNCLE [K21N] | 2 |
| FGGNPRFLSLHRAHLGEEAHLCLE [K21L] | 2.14 |
| FGGNPRFLSLHRAHLGEEAHVCLE [K21V] | 1.38 |
| FGGNPRFLSLHRAHLGEEAHSCLE [K21S] | 1.85 |
| FGGNPRFLSLHRAHLGEEAHACLE [K21A] | 1.77 |
| FGGNPRFLSLHRAHLGEEAHPCLE [K21P] | 2.13 |

| Variant | protein stability index |
| --- | --- |
| FGGNPRFLSLHRAHLGEEAHGCLE [K21G] | 1.9 |
| FGGNPRFLSLHRAHLGEEAHFCLE [K21F] | 2.17 |
| FGGNPRFLSLHRAHLGEEAHDCLE [K21D] | 1.86 |
| FGGNPRFLSLHRAHLGEEAHCCLE [K21C] | 1.98 |
| FGGNPRFLSLHRAHLGEEAHTCLE [K21T] | 2.04 |
| FGGNPRFLSLHRAHLGEEAHYCLE [K21Y] | 1.71 |
| FGGNPRFLSLHRAHLGEEAHWCLE [K21W] | 1.6 |
| FGGNPRFLSLHRAHLGEEAHECLE [K21E] | 1.76 |
| FGGNPRFLSLHRAHLGEEAHICLE [K21I] | 2.14 |
| FGGNPRFLSLHRAHLGEEAHQCLE [K21Q] | 2 |
| FGGNPRFLSLHRAHLGEEAHHCLE [K21H] | 1.89 |
| FGGNPRFLSLHRAHLGEEAHKCSE [L23S] | 1.63 |
| FGGNPRFLSLHRAHLGEEAHKCGE [L23G] | 1.76 |
| FGGNPRFLSLHRAHLGEEAHKCWE [L23W] | 1.75 |
| FGGNPRFLSLHRAHLGEEAHKCRE [L23R] | 1.7 |
| FGGNPRFLSLHRAHLGEEAHKCVE [L23V] | 1.83 |
| FGGNPRFLSLHRAHLGEEAHKCQE [L23Q] | 1.92 |
| FGGNPRFLSLHRAHLGEEAHKCCE [L23C] | 1.97 |
| FGGNPRFLSLHRAHLGEEAHKCIE [L23I] | 2.02 |
| FGGNPRFLSLHRAHLGEEAHKCEE [L23E] | 1.97 |
| FGGNPRFLSLHRAHLGEEAHKCME [L23M] | 1.96 |
| FGGNPRFLSLHRAHLGEEAHKCFE [L23F] | 1.8 |
| FGGNPRFLSLHRAHLGEEAHKCAE [L23A] | 2.65 |
| FGGNPRFLSLHRAHLGEEAHKCDE [L23D] | 1.63 |

| Variant | protein stability index |
| --- | --- |
| FGGNPRFLSLHRAHLGEEAHKCYE [L23Y] | 1.75 |
| FGGNPRFLSLHRAHLGEEAHKCPE [L23P] | 2.02 |
| FGGNPRFLSLHRAHLGEEAHKCTE [L23T] | 2.51 |
| FGGNPRFLSLHRAHLGEEAHKCNE [L23N] | 2.21 |
| FGGNPRFLSLHRAHLGEEAHKCKE [L23K] | 1.91 |
| FGGNPRFLSLHRAHLGEEAHKCHE [L23H] | 1.97 |
| FGGNPRFLSLHRAHLGEETHKCLE [A19T] | 1.95 |
| FGGNPRFLSLHRAHLGEELHKCLE [A19L] | 1.39 |
| FGGNPRFLSLHRAHLGEEDHKCLE [A19D] | 1.99 |
| FGGNPRFLSLHRAHLGEEWHKCLE [A19W] | 2.23 |
| FGGNPRFLSLHRAHLGEECHKCLE [A19C] | 2.48 |
| FGGNPRFLSLHRAHLGEEEHKCLE [A19E] | 2.14 |
| FGGNPRFLSLHRAHLGEEVHKCLE [A19V] | 1.91 |
| FGGNPRFLSLHRAHLGEEFHKCLE [A19F] | 1.44 |
| FGGNPRFLSLHRAHLGEEKHKCLE [A19K] | 1.49 |
| FGGNPRFLSLHRAHLGEEMHKCLE [A19M] | 2.18 |
| FGGNPRFLSLHRAHLGEEPHKCLE [A19P] | 2.08 |
| FGGNPRFLSLHRAHLGEEQHKCLE [A19Q] | 1.9 |
| FGGNPRFLSLHRAHLGEESHKCLE [A19S] | 2.48 |
| FGGNPRFLSLHRAHLGEEGHKCLE [A19G] | 1.58 |
| FGGNPRFLSLHRAHLGEEIHKCLE [A19I] | 2.36 |
| FGGNPRFLSLHRAHLGEENHKCLE [A19N] | 1.66 |
| FGGNPRFLSLHRAHLGEERHKCLE [A19R] | 1.59 |
| FGGNPRFLSLHRAHLGEEHHKCLE [A19H] | 1.75 |

| Variant | protein stability index |
| --- | --- |
| FGGNPRFLSLHRAHLGEEYHKCLE [A19Y] | 1.57 |
| FGGNPRFLSLHRAHLGEWAHKCLE [E18W] | 2.03 |
| FGGNPRFLSLHRAHLGEYAHKCLE [E18Y] | 1.88 |
| FGGNPRFLSLHRAHLGEEAGKCLE [H20G] | 1.53 |
| FGGNPRFLSLHRAHLGEEAIKCLE [H20I] | 1.4 |
| FGGNPRFLSLHRAHLGEEAVKCLE [H20V] | 1.43 |
| FGGNPRFLSLHRAHLGEEAYKCLE [H20Y] | 2.18 |
| FGGNPRFLSLHRAHLGEEALKCLE [H20L] | 1.61 |
| FGGNPRFLSLHRAHLGEEANKCLE [H20N] | 1.49 |
| FGGNPRFLSLHRAHLGEEAAKCLE [H20A] | 1.24 |
| FGGNPRFLSLHRAHLGEEAMKCLE [H20M] | 2.13 |
| FGGNPRFLSLHRAHLGEEAPKCLE [H20P] | 1.83 |
| FGGNPRFLSLHRAHLGEEASKCLE [H20S] | 2.69 |
| FGGNPRFLSLHRAHLGEEACKCLE [H20C] | 2.94 |
| FGGNPRFLSLHRAHLGEEAKKCLE [H20K] | 2.56 |
| FGGNPRFLSLHRAHLGEEAWKCLE [H20W] | 2.24 |
| FGGNPRFLSLHRAHLGEEAQKCLE [H20Q] | 1.04 |
| FGGNPRFLSLHRAHLGEEAEKCLE [H20E] | 2.13 |
| FGGNPRFLSLHRAHLGEEATKCLE [H20T] | 1.55 |
| FGGNPRFLSLHRAHLGEEADKCLE [H20D] | 2.28 |
| FGGNPRFLSLHRAHLGEEAFKCLE [H20F] | 1.98 |
| FGGNPRFLSLHRAHLGEEARKCLE [H20R] | 1.66 |

Source: the supplement of paper PMC10567573
